{
  "source": "patent US11407811B2",
  "about": "“Fusion protein, preparation method therefor and use thereof” (JIANGSU RONGTAI BIOTECH CO., LTD., priority 2017, dated 2022)",
  "molecules": {"B1": {"name": "Protein II: IgG2-Fc linked to antiangiogenesis polypeptide EDSM-Y via a flexible linker; SEQ ID NO: 17 (protein)", "chain": "ERKCCVECPPCPAPPVAGPSVFLFPPKPKDTLMISRTPEVTCVVVDVSHEDPEVQFNWYVDGVEVHNAKTKPREEQFNSTFRVVSVLTVVHQDWLNGKEYKCKVSNKGLPAPIEKTISKTKGQPREPQVYTLPPSREEMTKNQVSLTCLVKGFYPSDISVEWESNGQPENNYKTTPPMLDSDGSFFLYSKLTVDKSRWQQGNVFSCSVMHEALHNHYTQKSLSLSPGKGGGGSGGGGSGGGGSFQPVLHLVALNSPLSGGMRGIRGADFQCFQQARAVGLAGTFRAGGGGRGD"}},
  "key": {"mouse spleen lymphocytes": {"test_system": "mouse spleen lymphocytes", "assay": "Proliferation of mouse spleen lymphocytes (ConA, MTT)", "assay_type": "cell-based", "conditions": "for A570 nm/A630 nm / PI (%): with ConA 5 μg/mL", "description": "Tris-NH4Cl was used to break the red blood cells, which were allowed to stand in an ice water bath for 4 min and centrifuged (1000 rpm, 5 min), the supernatant was discarded, and the cells were washed twice with sterile PBS.\nThe cells were statically cultured in a cell incubator at 37° C. for 48 h. After the completion of the culture, 20 μL of MTT was added to each well, and the culture was continued for 4 h. Finally, all the solutions in each well were discarded, 100 μL of DMSO was added to each well, and the mixture was shaken and detected by a microplate reader for OD value at 570 nm. 5 parallels were preformed for per well."}, "[1]": {"test_system": "toe swelling in rat induced by carrageenan", "assay": "Acute inflammation of toe swelling in rat induced by carrageenan", "assay_type": "in vivo", "conditions": "for Swelling degree 1 h: 1 h after carrageenan; for Swelling degree 1 h / Swelling degree 3 h / Swelling degree 5 h / Swelling degree 7 h: rat foot; for Swelling degree 3 h: 3 h after carrageenan; for Swelling degree 5 h: 5 h after carrageenan; for Swelling degree 7 h: 7 h after carrageenan", "description": "80 SD rats were randomly divided into 8 groups with 10 mice for each group. […] The drug was administered once by injection, and the model group was given an equal volume of physiological saline and fed normally. On the third day, 0.1 mL of 1% carrageenan was injected subcutaneously into the right hind toes of the rats to induce inflammation. The foot volume was measured at 1 h, 3 h, 5 h, and 7 h after inflammation. The swelling degree of the foot was calculated according to the following formula: the swelling degree of the foot (mL)=the volume of the foot after inflammation—the volume before inflammation. The number of milliliters of spilled liquid was recorded (method: the protruding point of the right joint was circled with a ballpoint pen and used as a measurement mark, and the right hind feet of the rat were sequentially placed in the volume measuring device, so that the hind limbs were exposed outside the cylinder, and the depth of the immersion was limited to the overlap of the circle and the liquid level. After the foot entered the liquid, the liquid level was raised, and the volume of the spilled liquid was the volume of the right hind foot of the rat, and the normal volume of the right hind foot of each rat is sequentially determined)."}, "[2]": {"test_system": "choroidal blood flow in rabbit eyes", "assay": "Choroidal blood flow in rabbit eyes (color microsphere technique)", "assay_type": "in vivo", "conditions": "128 μg intravitreal injection; for Blood flow: rabbit eyes with high intraocular pressure", "description": "New Zealand white rabbits with weight of 2.5-3.0 kg were randomly divided into […], which were labeled as a control group, and fusion protein I, protein II, protein III, protein IV, and protein V groups. White rabbits in each group were anesthetized with 35 mg/kg xylazine via intramuscular injection, and then anesthesia was maintained with half of the initial amount via intramuscular injection per hour. The intraocular pressure of the left eye was increased to 40 mmHg, under which the blood flow can be reduced to ⅓ of the normal value. The left ventricle was cannulated through right carotid artery for injection of microspheres (for the calculation of ocular blood flow), and the femoral artery was cannulated for blood collection. Each group was given physiological saline, 128 μg of fusion protein I, 128 μg of protein II, 128 μg of protein III, 128 μg of protein IV, and 128 μg of protein V via intravitreal injection. The ocular blood flow of rabbit eyes with high intraocular pressure was measured by a color microsphere technique at 0, 30, and 60 minutes after administration. At each time point, 0.2 mL (about 2 million) of microspheres were injected. Immediately after the microspheres were injected, blood was collected through the femoral artery for 60 seconds, and placed in a heparinized anticoagulant tube, and the amount of blood collected was recorded. After the last blood collection, the animals were sacrificed with 100 mg/kg phenobarbital via intravenous infusion. The eyeballs were removed, and the retina, choroid, iris and ciliary body were separated, and the tissue weight was recorded. The tissue blood flow at each time point was calculated with the following formula: Qm=(Cm×Qr)/Cr, where Qm represented tissue blood flow in μL/min/mg; Cm was the number of microspheres per milligram of tissue; Qr was blood flow in μL/min; and Cr was the number of blood microspheres as a reference."}, "[3]": {"test_system": "iris neovascularization in rabbits", "assay": "Iris neovascularization in rabbits", "assay_type": "in vivo, rabbit", "conditions": "128 μg, intravitreal injection once every 5 days for 2 weeks", "description": "The argon ion laser at 577 nm was used to occlude the major branch vein of rabbit retina, and a success venous occlusion was confirmed by fundus fluorescein angiography (FFA).\n9 eyes successful in modeling were randomly divided into […]. They were labeled as a negative control group, and fusion protein I, protein II, protein III, protein IV and protein V treatment groups, respectively, which were respectively given physiological saline, 128 μg of fusion protein I, 128 μg of protein II, 128 μg of protein III, 128 μg of protein IV and 128 μg of protein V via intravitreal injection once every 5 days for 2 weeks. The observation was performed with an optical and electron microscope on the third week."}},
  "data": [
    {"molecule": "B1", "values": [
      {"measurement": "inhibition of mouse spleen lymphocytes", "setting": "mouse spleen lymphocytes; compared with the ConA group", "result": "could inhibit mouse spleen lymphocytes to some extent"},
      {"measurement": "A570 nm/A630 nm", "setting": "mouse spleen lymphocytes; dose 8 μg/mL", "result": "0.5514 ± 0.0187"},
      {"measurement": "PI (%)", "setting": "mouse spleen lymphocytes; dose 8 μg/mL", "result": 6.84, "unit": "%"},
      {"measurement": "A570 nm/A630 nm", "setting": "mouse spleen lymphocytes; dose 32 μg/mL", "result": "0.4637 ± 0.0155"},
      {"measurement": "PI (%)", "setting": "mouse spleen lymphocytes; dose 32 μg/mL", "result": 21.66, "unit": "%"},
      {"measurement": "A570 nm/A630 nm", "setting": "mouse spleen lymphocytes; dose 128 μg/mL", "result": "0.3825 ± 0.0103"},
      {"measurement": "PI (%)", "setting": "mouse spleen lymphocytes; dose 128 μg/mL", "result": 35.38, "unit": "%"},
      {"measurement": "Swelling degree 1 h", "setting": "[1]; 8 mg/kg", "result": "0.29 ± 0.25", "unit": "mL"},
      {"measurement": "Swelling degree 3 h", "setting": "[1]; 8 mg/kg", "result": "0.34 ± 0.09", "unit": "mL"},
      {"measurement": "Swelling degree 5 h", "setting": "[1]; 8 mg/kg", "result": "0.36 ± 0.12", "unit": "mL"},
      {"measurement": "Swelling degree 7 h", "setting": "[1]; 8 mg/kg", "result": "0.41 ± 0.09", "unit": "mL"},
      {"measurement": "Swelling degree 1 h", "setting": "[1]; 32 mg/kg", "result": "0.27 ± 0.06", "unit": "mL"},
      {"measurement": "Swelling degree 3 h", "setting": "[1]; 32 mg/kg", "result": "0.41 ± 0.18", "unit": "mL"},
      {"measurement": "Swelling degree 5 h", "setting": "[1]; 32 mg/kg", "result": "0.37 ± 0.11", "unit": "mL"},
      {"measurement": "Swelling degree 7 h", "setting": "[1]; 32 mg/kg", "result": "0.33 ± 0.02", "unit": "mL"},
      {"measurement": "Swelling degree 1 h", "setting": "[1]; 128 mg/kg", "result": "0.21 ± 0.16", "unit": "mL"},
      {"measurement": "Swelling degree 3 h", "setting": "[1]; 128 mg/kg", "result": "0.32 ± 0.10", "unit": "mL"},
      {"measurement": "Swelling degree 5 h", "setting": "[1]; 128 mg/kg", "result": "0.41 ± 0.05", "unit": "mL"},
      {"measurement": "Swelling degree 7 h", "setting": "[1]; 128 mg/kg", "result": "0.36 ± 0.16", "unit": "mL"},
      {"measurement": "inhibition of toe swelling induced by carrageenan", "setting": "[1]; high doses", "result": "could significantly inhibit toe swelling"},
      {"measurement": "inhibition of toe swelling induced by carrageenan", "setting": "[1]; low dose", "result": "not significant"},
      {"measurement": "Blood flow", "setting": "[2]; 0 min after administration", "result": "22.9 ± 2.5", "unit": "µL/min/mg"},
      {"measurement": "Blood flow", "setting": "[2]; 30 min after administration", "result": "15.7 ± 1.3", "unit": "µL/min/mg"},
      {"measurement": "Blood flow", "setting": "[2]; 60 min after administration", "result": "13.9 ± 1.2", "unit": "µL/min/mg"},
      {"measurement": "choroidal blood flow", "setting": "[2]; all observation time points", "result": "significantly increased"},
      {"measurement": "effect on iris neovascularization", "setting": "[3]", "result": "could inhibit neovascularization and regress the formed blood vessels"}
    ]}
  ]
}
